Experimental data published in paper PMC5912500.

Target: T1, Wild-type (WT) moesin, P26038
T1 chain: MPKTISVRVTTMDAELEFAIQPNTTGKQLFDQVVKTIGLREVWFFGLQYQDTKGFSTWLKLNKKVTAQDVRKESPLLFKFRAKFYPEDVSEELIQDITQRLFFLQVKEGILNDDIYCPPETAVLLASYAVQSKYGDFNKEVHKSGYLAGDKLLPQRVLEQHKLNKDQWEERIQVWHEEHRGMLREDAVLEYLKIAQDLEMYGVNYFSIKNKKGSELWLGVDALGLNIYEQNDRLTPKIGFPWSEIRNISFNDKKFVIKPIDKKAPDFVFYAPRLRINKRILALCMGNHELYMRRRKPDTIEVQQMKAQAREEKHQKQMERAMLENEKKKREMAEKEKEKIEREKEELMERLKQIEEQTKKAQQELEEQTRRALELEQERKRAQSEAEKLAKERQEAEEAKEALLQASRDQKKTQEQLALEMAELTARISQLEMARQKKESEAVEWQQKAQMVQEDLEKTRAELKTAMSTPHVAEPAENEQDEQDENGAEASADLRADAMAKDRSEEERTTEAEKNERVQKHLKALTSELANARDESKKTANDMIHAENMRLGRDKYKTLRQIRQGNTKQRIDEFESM
Experiment: AUC
Details: remark: other sources report otherwise

B1: Wild-type (WT) moesin, P26038 1-577 (natural protein)
chain: MPKTISVRVTTMDAELEFAIQPNTTGKQLFDQVVKTIGLREVWFFGLQYQDTKGFSTWLKLNKKVTAQDVRKESPLLFKFRAKFYPEDVSEELIQDITQRLFFLQVKEGILNDDIYCPPETAVLLASYAVQSKYGDFNKEVHKSGYLAGDKLLPQRVLEQHKLNKDQWEERIQVWHEEHRGMLREDAVLEYLKIAQDLEMYGVNYFSIKNKKGSELWLGVDALGLNIYEQNDRLTPKIGFPWSEIRNISFNDKKFVIKPIDKKAPDFVFYAPRLRINKRILALCMGNHELYMRRRKPDTIEVQQMKAQAREEKHQKQMERAMLENEKKKREMAEKEKEKIEREKEELMERLKQIEEQTKKAQQELEEQTRRALELEQERKRAQSEAEKLAKERQEAEEAKEALLQASRDQKKTQEQLALEMAELTARISQLEMARQKKESEAVEWQQKAQMVQEDLEKTRAELKTAMSTPHVAEPAENEQDEQDENGAEASADLRADAMAKDRSEEERTTEAEKNERVQKHLKALTSELANARDESKKTANDMIHAENMRLGRDKYKTLRQIRQGNTKQRIDEFESM
- percent of the protein as dimers: 29 to 31%
